B1: 030217-A05 (protein)
chain: MALPVTALLLPLALLLHAARPDEIVLTQSPATLSLSPGERATLSCSASSSVSYMHWYQQKPGQAPRLLIYDTSKLASGIPARFSGSGSGTDFTLTISSLEPEDVAVYYCFQGSVYPFTFGQGTKLEIKRGGGGSGGGGSGGGGSQVQLQESGPGLVKPSQTLSLTCTVSGGSISTSGMGVGWIRQHPGKGLEWIGHIWWDDDKRYNPALKSRVTISVDTSKNQFSLKLSSVTAADTAVYYCARMELWSYYFDYWGQGTLVTVSSLEGKPIPNPLLGLDSTGSGEDLKNVFPPEVAVFEPSKAEIAHTQKATLVCLATGFYPDHVELSWWVNGKEVHSGVCTDPQPLKEQPALNDSRYCLSSRLRVSATFWQNPRNHFRCQVQFYGLSENDEWTQDRAKPVTQIVSAEAWGRADCGITSASYHQGVLSATILYEILLGKATLYAVLVSALVLMAMVKRKDSRGRAKRSGSGATNFSLLKQAGDVEENPGPTSTMALPVTALLLPLALLLHAARPDIQMTQSPSSLSASVGDRVTITCKASQDVGIAVAWYQQKPGKVPKLLIYWASTRHTGVPDRFSGSGSGTDFTLTISSLQPEDVATYYCQQYSSYPYTFGQGTKVEIKGGGGSGGGGSGGGGSEVQLVESGGGLVQPGGSLRLSCAASGFDFSRYWMSWVRQAPGKGLEWIGEINPDSSTINYAPSLKDKFIISRDNAKNSLYLQMNSLRAEDTAVYYCARPDGNYWYFDVWGQGTLVTVSSTREQKLISEEDGSGIQNPDPAVYQLRDSKSSDKSVCLFTDFDSQTNVSQSKDSDVYITDKCVLDMRSMDFKSNSAVAWSNKSDFACANAFNNSIIPEDTFFPSSDVPCDVKLVEKSFETDTNLNFQNLSVIGFRILLLKVAGFNLLMTLRLWSSRAKRSGSGVKQTLNFDLLKLAGDVESNPGPSRGHMTEYKPTVRLATRDDVPRAVRTLAAAFADYPATRHTVDPDRHIERVTELQELFLTRVGLDIGKVWVADDGAAVAVWTTPESVEAGAVFAEIGPRMAELSGSRLAAQQQMEGLLAPHRPKEPAWFLATVGVSPDHQGKGLGSAVVLPGVEAAERAGVPAFLETSAPRNLPFYERLGFTVTADVEVPEGPRTWCMTRKPGA
B2: 010417-I04 (protein)
chain: MALPVTALLLPLALLLHAARPLEGKPIPNPLLGLDSTGSGEDLKNVFPPEVAVFEPSKAEIAHTQKATLVCLATGFYPDHVELSWWVNGKEVHSGVCTDPQPLKEQPALNDSRYCLSSRLRVSATFWQNPRNHFRCQVQFYGLSENDEWTQDRAKPVTQIVSAEAWGRADCGITSASYHQGVLSATILYEILLGKATLYAVLVSALVLMAMVKRKDSRGRAKRSGSGATNFSLLKQAGDVEENPGPTSMALPVTALLLPLALLLHAARPEIVLTQSPDFQSVTPKEKVTITCRASESVDTFGISFMNWFQQKPDQSPKLLIHAASNQGSGVPSRFSGSGSGTDFTLTINSLEAEDAATYYCQQSKEVPFTFGGGTKVEIKGGGGSGGGGSGGGGSEVQLVESGGGLVQPGGSLRLSCAASGFTFSSSWMNWVRQAPGKGLEWVGRIYPGDGDTNYNGKFKGRFTISRDDSKNSLYLQMNSLKTEDTAVYYCARSGFITTVLDFDYWGQGTLVTVSSTREQKLISEEDLGSGTPFPSLAPPIMLLVDGKQQMVVVCLVLDVAPPGLDSPIWFSAGNGSALDAFTYGPSPATDGTWTNLAHLSLPSEELASWEPLVCHTGPGAEGHSRSTQPMHLSGEASTARTCPQEPLRGTPGGALWLGVLRLLLFKLLLFDLLLTCSCLCDPAGPLPSPATTTRLRALGSHRLHPATETGGREATSSPRPQPRDRRWGDTPPGRKPGSPVRAKRSGSGVKQTLNFDLLKLAGDVESNPGPSRSRGHMTEYKPTVRLATRDDVPRAVRTLAAAFADYPATRHTVDPDRHIERVTELQELFLTRVGLDIGKVWVADDGAAVAVWTTPESVEAGAVFAEIGPRMAELSGSRLAAQQQMEGLLAPHRPKEPAWFLATVGVSPDHQGKGLGSAVVLPGVEAAERAGVPAFLETSAPRNLPFYERLGFTVTADVEVPEGPRTWCMTRKPGA
B3: 010417-L03 (protein)
chain: MALPVTALLLPLALLLHAARPLEQKLISEEDLGSGDRPDPAVYQLRDSKSSDKSVCLFTDFDSQTNVSQSKDSDVYITDKCVLDMRSMDFKSNSAVAWSNKSDFACANAFNNSIIPEDTFFPSPESSCDVKLVEKSFETDTNLNFQNLSVIGFRILLLKVAGFNLLMTLRLWSSSSRAKRSGSGVKQTLNFDLLKLAGDVESNPGPTSMALPVTALLLPLALLLHAARPEIVLTQSPDFQSVTPKEKVTITCRASESVDTFGISFMNWFQQKPDQSPKLLIHAASNQGSGVPSRFSGSGSGTDFTLTINSLEAEDAATYYCQQSKEVPFTFGGGTKVEIKGGGGSGGGGSGGGGSEVQLVESGGGLVQPGGSLRLSCAASGFTFSSSWMNWVRQAPGKGLEWVGRIYPGDGDTNYNGKFKGRFTISRDDSKNSLYLQMNSLKTEDTAVYYCARSGFITTVLDFDYWGQGTLVTVSSTRGKPIPNPLLGLDSTGSGEDLKNVFPPEVAVFEPSEAEISHTQKATLVCLATGFYPDHVELSWWVNGKEVHSGVCTDPQPLKEQPALNDSRYCLSSRLRVSATFWQNPRNHFRCQVQFYGLSENDEWTQDRAKPVTQIVSAEAWGRADCGFTSESYQQGVLSATILYEILLGKATLYAVLVSALVLMAMVKRKDSRGRAKRSGSGATNFSLLKQAGDVEENPGPSRGHMTEYKPTVRLATRDDVPRAVRTLAAAFADYPATRHTVDPDRHIERVTELQELFLTRVGLDIGKVWVADDGAAVAVWTTPESVEAGAVFAEIGPRMAELSGSRLAAQQQMEGLLAPHRPKEPAWFLATVGVSPDHQGKGLGSAVVLPGVEAAERAGVPAFLETSAPRNLPFYERLGFTVTADVEVPEGPRTWCMTRKPGA
B4: 011317-A06 (protein)
chain: B3 chain
B5: 010417-H05 (protein)
chain: MALPVTALLLPLALLLHAARPLEGKPIPNPLLGLDSTGSGEDLKNVFPPEVAVFEPSKAEIAHTQKATLVCLATGFYPDHVELSWWVNGKEVHSGVCTDPQPLKEQPALNDSRYCLSSRLRVSATFWQNPRNHFRCQVQFYGLSENDEWTQDRAKPVTQIVSAEAWGRADCGITSASYHQGVLSATILYEILLGKATLYAVLVSALVLMAMVKRKDSRGRAKRSGSGATNFSLLKQAGDVEENPGPTSMALPVTALLLPLALLLHAARPEIVLTQSPDFQSVTPKEKVTITCRASESVDTFGISFMNWFQQKPDQSPKLLIHAASNQGSGVPSRFSGSGSGTDFTLTINSLEAEDAATYYCQQSKEVPFTFGGGTKVEIKGGGGSGGGGSGGGGSEVQLVESGGGLVQPGGSLRLSCAASGFTFSSSWMNWVRQAPGKGLEWVGRIYPGDGDTNYNGKFKGRFTISRDDSKNSLYLQMNSLKTEDTAVYYCARSGFITTVLDFDYWGQGTLVTVSSTREQKLISEEDGSGIQNPDPAVYQLRDSKSSDKSVCLFTDFDSQTNVSQSKDSDVYITDKCVLDMRSMDFKSNSAVAWSNKSDFACANAFNNSIIPEDTFFPSSDVPCDVKLVEKSFETDTNLNFQNLSVIGFRILLLKVAGFNLLMTLRLWSSRAKRSGSGVKQTLNFDLLKLAGDVESNPGPSRGHMTEYKPTVRLATRDDVPRAVRTLAAAFADYPATRHTVDPDRHIERVTELQELFLTRVGLDIGKVWVADDGAAVAVWTTPESVEAGAVFAEIGPRMAELSGSRLAAQQQMEGLLAPHRPKEPAWFLATVGVSPDHQGKGLGSAVVLPGVEAAERAGVPAFLETSAPRNLPFYERLGFTVTADVEVPEGPRTWCMTRKPGA

System: target antigen-expressing cell line
Assay: Jurkat NFAT-GFP assay, coculture with target cell lines expressing the respective target antigen (summary Table 10A)
Format: cell-based, human
Design: key: The signs +/−, +, 2+ etc. after the name of the cell lines indicate the relative degree of positivity on the Jurkat-NFAT-GFP assay as measured by the % GFP positive cells; +: relative degree of positivity on the Jurkat-NFAT-GFP assay as measured by the % GFP positive cells; 2+: relative degree of positivity on the Jurkat-NFAT-GFP assay as measured by the % GFP positive cells
Details: SIR-expressing Jurkat-NFAT-GFP cells cocultured with L363; relative % GFP positive cells
Summary of the method: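 Positivity is scored when SIR-expressing reporter Jurkat cells show more GFP-positive cells than parental controls after coculture with the antigen-bearing line. Effector-to-target ratio is about 1:2, coculture lasts roughly 4–18 hours, and GFP is quantified by FACS.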

Molecule	NFAT-GFP ASSAY Positive Cell lines: L363
B1	(+/−), L363 (+/−),

Same assay, conditions: SIR-expressing Jurkat-NFAT-GFP cells cocultured with NALM6; relative % GFP positive cells

Molecule	NFAT-GFP ASSAY Positive Cell lines: NALM6
B1	(+/−), L363 (+/−),
B2	(+/−)
B3	RAJI (+), NALM6 (+)
B4	(2+)
B5	(+)

Same assay, conditions: SIR-expressing Jurkat-NFAT-GFP cells cocultured with RAJI; relative % GFP positive cells

Molecule	NFAT-GFP ASSAY Positive Cell lines: RAJI
B1	RAJI (+), NALM6
B2	RAJI (+), NALM6
B3	RAJI (+), NALM6 (+)
B4	RAJI (2+), NALM6
B5	RAJI (2+), NALM6

Same assay, conditions: SIR-expressing Jurkat-NFAT-GFP cells cocultured with U266; relative % GFP positive cells

Molecule	NFAT-GFP ASSAY Positive Cell lines: U266
B1	U266 (+/−)

Source: patent US12269859B2, “Synthetic immune receptors and methods of use thereof” (Angeles Therapeutics, Inc., priority 2016, dated 2025)
